For series [1], the target named is p53 wild-type (Homo sapiens) (UniProt P04637). The experiment in a line: pulldown. To be noted: 100 mM NaCl; positive control.
The target of series [2] is RB18A D9 product (aa 436-1566) (Homo sapiens) (UniProt Q15648). As to the kind of experiment: pulldown. The following applies: 100 mM NaCl.
Series [3] concerns luciferase. The experiment in a line: pulldown. The following applies: 100 mM NaCl; negative control.
Series [4] concerns p53 wild-type His-tag (Homo sapiens). To be noted: strand annealing initial rate, 20 nM protein, 37 C.
Series [5] addresses GST-RB18A-N2 (Homo sapiens) (UniProt Q15648). The following applies: strand annealing initial rate, 20 nM protein, 37 C.

Experimental findings from patent publication US20040052794 are described below.

Sequence of GST-RB18A-N2 (Homo sapiens) (Q15648 1249-1581): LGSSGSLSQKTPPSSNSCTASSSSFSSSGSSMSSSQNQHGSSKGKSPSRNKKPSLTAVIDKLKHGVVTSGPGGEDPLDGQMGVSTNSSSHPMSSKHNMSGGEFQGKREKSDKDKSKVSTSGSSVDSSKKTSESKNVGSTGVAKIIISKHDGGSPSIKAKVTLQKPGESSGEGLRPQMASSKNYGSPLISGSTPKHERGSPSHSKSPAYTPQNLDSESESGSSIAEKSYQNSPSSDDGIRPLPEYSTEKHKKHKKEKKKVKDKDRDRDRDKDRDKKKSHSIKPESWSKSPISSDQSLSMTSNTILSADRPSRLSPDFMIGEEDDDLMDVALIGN
Sequence of p53 wild-type (Homo sapiens) (P04637 whole entry, the tested form may be a part): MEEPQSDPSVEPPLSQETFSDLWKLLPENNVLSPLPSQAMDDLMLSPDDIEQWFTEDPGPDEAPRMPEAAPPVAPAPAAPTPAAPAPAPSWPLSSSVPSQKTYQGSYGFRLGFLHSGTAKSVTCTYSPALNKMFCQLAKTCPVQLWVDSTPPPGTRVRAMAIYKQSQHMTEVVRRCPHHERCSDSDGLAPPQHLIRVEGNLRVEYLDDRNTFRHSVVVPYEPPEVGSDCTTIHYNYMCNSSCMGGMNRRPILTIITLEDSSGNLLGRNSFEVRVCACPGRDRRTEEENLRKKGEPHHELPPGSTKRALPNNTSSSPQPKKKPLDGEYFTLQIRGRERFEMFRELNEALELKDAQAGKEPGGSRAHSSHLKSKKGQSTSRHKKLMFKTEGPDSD
Sequence of RB18A D9 product (aa 436-1566) (Homo sapiens) (Q15648 other isoform, or with tags, fused parts or gaps): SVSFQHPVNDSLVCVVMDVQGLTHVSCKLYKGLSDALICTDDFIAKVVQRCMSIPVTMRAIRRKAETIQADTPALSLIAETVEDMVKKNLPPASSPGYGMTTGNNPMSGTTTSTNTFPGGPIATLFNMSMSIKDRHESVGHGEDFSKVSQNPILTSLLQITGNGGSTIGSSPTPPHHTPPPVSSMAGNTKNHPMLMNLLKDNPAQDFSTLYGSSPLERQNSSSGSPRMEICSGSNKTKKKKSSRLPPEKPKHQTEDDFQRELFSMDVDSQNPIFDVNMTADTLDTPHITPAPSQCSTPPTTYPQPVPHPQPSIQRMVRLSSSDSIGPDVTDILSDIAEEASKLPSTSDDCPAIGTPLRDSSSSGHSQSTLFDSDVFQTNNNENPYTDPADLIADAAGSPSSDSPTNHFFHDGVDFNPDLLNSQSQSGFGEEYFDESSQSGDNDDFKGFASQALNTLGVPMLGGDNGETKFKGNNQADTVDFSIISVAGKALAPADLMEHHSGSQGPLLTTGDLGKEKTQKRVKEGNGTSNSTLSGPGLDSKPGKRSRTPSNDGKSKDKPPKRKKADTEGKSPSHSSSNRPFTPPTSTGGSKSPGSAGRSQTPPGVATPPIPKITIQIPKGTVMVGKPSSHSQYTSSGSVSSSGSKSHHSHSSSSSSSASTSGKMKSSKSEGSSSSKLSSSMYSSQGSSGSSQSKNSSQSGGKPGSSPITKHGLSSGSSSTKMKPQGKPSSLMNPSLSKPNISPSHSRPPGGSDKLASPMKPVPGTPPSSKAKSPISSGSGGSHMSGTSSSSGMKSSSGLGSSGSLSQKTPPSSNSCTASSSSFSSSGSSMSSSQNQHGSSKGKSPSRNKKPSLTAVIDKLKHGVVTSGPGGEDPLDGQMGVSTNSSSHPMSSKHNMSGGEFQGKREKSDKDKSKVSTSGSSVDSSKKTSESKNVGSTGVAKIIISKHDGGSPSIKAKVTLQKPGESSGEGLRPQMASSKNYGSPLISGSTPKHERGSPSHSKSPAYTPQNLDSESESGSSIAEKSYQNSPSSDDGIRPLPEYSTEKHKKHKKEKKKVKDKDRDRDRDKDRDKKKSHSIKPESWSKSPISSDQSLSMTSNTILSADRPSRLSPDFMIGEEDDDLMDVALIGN

For double-stranded DNA-cellulose, the binding (% of input retained) in series [1] is 20; in series [2], 20; in series [3], less than 0.1.

For “phiX174 HaeIII 194 bp fragment, heat denatured”, the activity in series [4] was 5.9 %/min; in series [5] it was 14 %/min.
